Experiments:
[1] = Stability of linkers L1-L4 conjugated to FGF21 (LC-MS); assay type: physicochemical; conditions: linker conjugated to FGF21ΔH-A129C
Procedure: The following experiment was performed to investigate the chemical stability over 2 weeks of the four linkers upon conjugation to FGF21: each linker was conjugated to FGF21, placed at +4° C. storage conditions, and aliquots were removed and quenched by freezing at specific time points, and linker stability was monitored by LCMS analysis.
The four linkers were dissolved in DMSO from lyophilized stock material. […] L1 was reacted with protein for 30 mins; L2, L3 and L4 were reacted for 2 hrs. The conjugation reaction was quenched by removal of excess linkers through size-exclusion resin. Conjugated FGF21ΔH-A129C protein was placed at +4° C. for stability storage. […] Analysis of linker stability was performed by LC-MS analysis to determine the relative amount of unconjugated protein, protein+linker conjugation, and single and double hydrolysis events of the conjugated protein+linker.
Linker hydrolysis is the critical analytical variable in this experiment. Hydrolysis was monitored by observing the subsequent addition of H2O to the FGF21-linker complex. A single addition of H2O, +(1) H2O, likely indicates the hydrolysis of the active AZD group that is present on all 4 linkers. The addition of a second H2O molecule, +(2) H2O, is a strong indicator of hydrolysis (eg—chemical instability) in the linker. L1 is particularly susceptible because of the presence of a maleimide functional group.

[2] = Hydrolysis of the reactive group of [SEQ ID NO:10-L1] over time; assay type: physicochemical; conditions: 4° C., FGF21 RP chromatography
Procedure: Fine Tune of Conjugation Conditions for FGF21-Linker: The laboratory scale-ups were performed at different scales with a variety of optimized buffers and pHs. […] Since hydrolysis of reactive group of SEQ ID NO:10-L1 occurs over time (Table 27), post activation diafiltration of SEQ ID NO:10-L1 should be operated at between about 2 and about 10° C. The amount of SEQ ID NO:10-L1 after post activation diafiltration varied in different experiments, and the difference could contribute to the variation of the conjugation efficiency for h38C2-[SEQ ID NO:10-L1]1. About 100 mM Phosphate pH about 6.3 gave the least aggregates and highest h38C2 remaining for recycle purpose.
The above sample was further passed through the UFDF to remove excess linker and TCEP. The membrane was sanitized with 1N NaOH for 30 min, drained, and equilibrated with 100 mM MES, pH 7.0. Buffer 100 mM MES, pH 7.0 was used for diafilteration (7× diafilteration). Diafiltration was done at 4 g/L retentate concentration. Foaming and splashing may be avoided during UF/DF. Hydrolysis of the reactive group of [SEQ ID NO:10-L1] occurred over the diafiltration process. The hold time for post-activation DF pool should be minimized. UF may be operated at 2-10° C. using 10K Sartorius Hydrosart membrane. The combined species [SEQ ID NO:10-L1] confirmed by FGF21 RP was down from 73% to 64% after UF/DF.

[3] = +4° C. storage, LC-MS, of total measured protein, 0 hrs

Molecule: O=C(CCN1C(=O)C=CC1=O)NCCOCCOCCC(=O)Nc1ccc(CCC(=O)N2CCC2=O)cc1 [Compound L1, 3-(2,5-dioxo-2,5-dihydro-1H-pyrrol-1-yl)-N-(2-(2-(3-oxo-3-(4-(3-oxo-3-(2-oxoazetidin-1-yl)propyl)phenylamino)propoxy)ethoxy)ethyl)propanamide]
- 0 linker (unconjugated protein) [1, 3]: 13%
- 1 linker (protein+linker conjugation) ([1]; +4° C., 0 hrs): 49%
- +(1) H2O (single hydrolysis) ([1]; +4° C., 0 hrs): 30%
- +(2) H2O (double hydrolysis) ([1]; +4° C., 0 hrs): 8%
- 0 linker (unconjugated protein) ([1]; +4° C., 24 hrs): 14%
- 1 linker (protein+linker conjugation) ([1]; +4° C., 24 hrs): 41%
- +(1) H2O (single hydrolysis) ([1]; +4° C., 24 hrs): 34%
- +(2) H2O (double hydrolysis) ([1]; +4° C., 24 hrs): 11%
- 0 linker (unconjugated protein) ([1]; +4° C., 72 hrs): 14%
- 1 linker (protein+linker conjugation) ([1]; +4° C., 72 hrs): 40%
- +(1) H2O (single hydrolysis) ([1]; +4° C., 72 hrs): 35%
- +(2) H2O (double hydrolysis) ([1]; +4° C., 72 hrs): 11%
- 0 linker (unconjugated protein) ([1]; +4° C., 168 hrs): 10%
- 1 linker (protein+linker conjugation) ([1]; +4° C., 168 hrs): 33%
- +(1) H2O (single hydrolysis) ([1]; +4° C., 168 hrs): 40%
- +(2) H2O (double hydrolysis) ([1]; +4° C., 168 hrs): 18%
- 0 linker (unconjugated protein) ([1]; +4° C., 336 hrs): 12%
- 1 linker (protein+linker conjugation) ([1]; +4° C., 336 hrs): 28%
- +(1) H2O (single hydrolysis) ([1]; +4° C., 336 hrs): 41%
- +(2) H2O (double hydrolysis) ([1]; +4° C., 336 hrs (2 weeks)): 18%

Molecule: CC1=CC(=O)N(CCC(=O)NCCOCCOCCC(=O)Nc2ccc(CCC(=O)N3CCC3=O)cc2)C1=O [Compound L2]
- 0 linker (unconjugated protein) [1, 3]: 22%
- 1 linker (protein+linker conjugation) ([1]; +4° C., 0 hrs): 45%
- +(1) H2O (single hydrolysis) ([1]; +4° C., 0 hrs): 27%
- +(2) H2O (double hydrolysis) ([1]; +4° C., 0 hrs): 6%
- 0 linker (unconjugated protein) ([1]; +4° C., 24 hrs): 23%
- 1 linker (protein+linker conjugation) ([1]; +4° C., 24 hrs): 43%
- +(1) H2O (single hydrolysis) ([1]; +4° C., 24 hrs): 26%
- +(2) H2O (double hydrolysis) ([1]; +4° C., 24 hrs): 8%
- 0 linker (unconjugated protein) ([1]; +4° C., 72 hrs): 24%
- 1 linker (protein+linker conjugation) ([1]; +4° C., 72 hrs): 37%
- +(1) H2O (single hydrolysis) ([1]; +4° C., 72 hrs): 32%
- +(2) H2O (double hydrolysis) ([1]; +4° C., 72 hrs): 8%
- 0 linker (unconjugated protein) ([1]; +4° C., 168 hrs): 24%
- 1 linker (protein+linker conjugation) ([1]; +4° C., 168 hrs): 40%
- +(1) H2O (single hydrolysis) ([1]; +4° C., 168 hrs): 29%
- +(2) H2O (double hydrolysis) ([1]; +4° C., 168 hrs): 7%
- 0 linker (unconjugated protein) ([1]; +4° C., 336 hrs): 26%
- 1 linker (protein+linker conjugation) ([1]; +4° C., 336 hrs): 38%
- +(1) H2O (single hydrolysis) ([1]; +4° C., 336 hrs): 28%
- +(2) H2O (double hydrolysis) ([1]; +4° C., 336 hrs (2 weeks)): 8%

Molecule: CC1=CC(=O)N(CCOCCOCCC(=O)Nc2ccc(CCC(=O)N3CCC3=O)cc2)C1=O [Compound L3]
- 0 linker (unconjugated protein) [1, 3]: 19%
- 1 linker (protein+linker conjugation) ([1]; +4° C., 0 hrs): 45%
- +(1) H2O (single hydrolysis) ([1]; +4° C., 0 hrs): 30%
- +(2) H2O (double hydrolysis) ([1]; +4° C., 0 hrs): 6%
- 0 linker (unconjugated protein) ([1]; +4° C., 24 hrs): 18%
- 1 linker (protein+linker conjugation) ([1]; +4° C., 24 hrs): 47%
- +(1) H2O (single hydrolysis) ([1]; +4° C., 24 hrs): 27%
- +(2) H2O (double hydrolysis) ([1]; +4° C., 24 hrs): 8%
- 0 linker (unconjugated protein) ([1]; +4° C., 72 hrs): 19%
- 1 linker (protein+linker conjugation) ([1]; +4° C., 72 hrs): 43%
- +(1) H2O (single hydrolysis) ([1]; +4° C., 72 hrs): 30%
- +(2) H2O (double hydrolysis) ([1]; +4° C., 72 hrs): 8%
- 0 linker (unconjugated protein) ([1]; +4° C., 168 hrs): 19%
- 1 linker (protein+linker conjugation) ([1]; +4° C., 168 hrs): 43%
- +(1) H2O (single hydrolysis) ([1]; +4° C., 168 hrs): 29%
- +(2) H2O (double hydrolysis) ([1]; +4° C., 168 hrs): 8%
- 0 linker (unconjugated protein) ([1]; +4° C., 336 hrs): 20%
- 1 linker (protein+linker conjugation) ([1]; +4° C., 336 hrs): 43%
- +(1) H2O (single hydrolysis) ([1]; +4° C., 336 hrs): 29%
- +(2) H2O (double hydrolysis) ([1]; +4° C., 336 hrs (2 weeks)): 8%

Molecule: CC1=CC(=O)N(CC2CCC(C(=O)NCCOCCOCCC(=O)Nc3ccc(CCC(=O)N4CCC4=O)cc3)CC2)C1=O (centres unmarked) [Compound L4]
- 0 linker (unconjugated protein) [1, 3]: 20%
- 1 linker (protein+linker conjugation) ([1]; +4° C., 0 hrs): 46%
- +(1) H2O (single hydrolysis) ([1]; +4° C., 0 hrs): 28%
- +(2) H2O (double hydrolysis) ([1]; +4° C., 0 hrs): 6%
- 0 linker (unconjugated protein) ([1]; +4° C., 24 hrs): 20%
- 1 linker (protein+linker conjugation) ([1]; +4° C., 24 hrs): 46%
- +(1) H2O (single hydrolysis) ([1]; +4° C., 24 hrs): 27%
- +(2) H2O (double hydrolysis) ([1]; +4° C., 24 hrs): 7%
- 0 linker (unconjugated protein) ([1]; +4° C., 72 hrs): 21%
- 1 linker (protein+linker conjugation) ([1]; +4° C., 72 hrs): 42%
- +(1) H2O (single hydrolysis) ([1]; +4° C., 72 hrs): 30%
- +(2) H2O (double hydrolysis) ([1]; +4° C., 72 hrs): 7%
- 0 linker (unconjugated protein) ([1]; +4° C., 168 hrs): 21%
- 1 linker (protein+linker conjugation) ([1]; +4° C., 168 hrs): 41%
- +(1) H2O (single hydrolysis) ([1]; +4° C., 168 hrs): 32%
- +(2) H2O (double hydrolysis) ([1]; +4° C., 168 hrs): 6%
- 0 linker (unconjugated protein) ([1]; +4° C., 336 hrs): 22%
- 1 linker (protein+linker conjugation) ([1]; +4° C., 336 hrs): 41%
- +(1) H2O (single hydrolysis) ([1]; +4° C., 336 hrs): 31%
- +(2) H2O (double hydrolysis) ([1]; +4° C., 336 hrs (2 weeks)): 6%

B1: [SEQ ID NO: 10-L1] (protein, listed as Homo sapiens)
chain: PIPDSSPLLQFGGQVRQRYLYTDDAQQTEAHLEIREDGTVGGAADQSPESLLQLKALKPGVIQILGVKTSRFLCQRPDGALYGSLHFDPEACSFRELLLEDGYNVYQSEAHGLPLHLPGNKSPHRDPCPRGPARFLPLPGLPPALPEPPGILAPQPPDVGSSDPLSMVGPSQGRSPSYAS
modifications: L1 linker attached
- % FGF21 ([2]; 0 hour): 13.4%
- % FGF21 dimer ([2]; 0 hour): 1.8%
- % Hydrolyzed reactive FGF21ΔH-A129C-L1 ([2]; 0 hour): 6.5%
- % Other ([2]; 0 hour): 1.6%
- % reactive FGF21ΔH-A129C-L1 ([2]; 0 hour): 76.7%
- % FGF21 ([2]; 1 hour): 13.2%
- % FGF21 dimer ([2]; 1 hour): 2.8%
- % Hydrolyzed reactive FGF21ΔH-A129C-L1 ([2]; 1 hour): 8.8%
- % Other ([2]; 1 hour): 1.6%
- % reactive FGF21ΔH-A129C-L1 ([2]; 1 hour): 73.6%
- % FGF21 ([2]; 2 hrs): 14.4%
- % FGF21 dimer ([2]; 2 hrs): 4.0%
- % Hydrolyzed reactive FGF21ΔH-A129C-L1 ([2]; 2 hrs): 10.6%
- % Other ([2]; 2 hrs): 1.9%
- % reactive FGF21ΔH-A129C-L1 ([2]; 2 hrs): 69.1%
- % FGF21 ([2]; 3 hrs): 13.3%
- % FGF21 dimer ([2]; 3 hrs): 4.1%
- % Hydrolyzed reactive FGF21ΔH-A129C-L1 ([2]; 3 hrs): 13.6%
- % Other ([2]; 3 hrs): 1.9%
- % reactive FGF21ΔH-A129C-L1 ([2]; 3 hrs): 67.1%
- % FGF21 ([2]; 4 hrs): 13.9%
- % FGF21 dimer ([2]; 4 hrs): 4.5%
- % Hydrolyzed reactive FGF21ΔH-A129C-L1 ([2]; 4 hrs): 14.9%
- % Other ([2]; 4 hrs): 1.8%
- % reactive FGF21ΔH-A129C-L1 ([2]; 4 hrs): 64.9%
- % FGF21 ([2]; 5 hrs): 14.3%
- % FGF21 dimer ([2]; 5 hrs): 5.0%
- % Hydrolyzed reactive FGF21ΔH-A129C-L1 ([2]; 5 hrs): 16.9%
- % Other ([2]; 5 hrs): 1.9%
- % reactive FGF21ΔH-A129C-L1 ([2]; 5 hrs): 61.9%
- % FGF21 ([2]; 6 hrs): 13.9%
- % FGF21 dimer ([2]; 6 hrs): 5.2%
- % Hydrolyzed reactive FGF21ΔH-A129C-L1 ([2]; 6 hrs): 18.8%
- % Other ([2]; 6 hrs): 1.8%
- % reactive FGF21ΔH-A129C-L1 ([2]; 6 hrs): 60.3%
- % FGF21 ([2]; 8 hrs): 14.5%
- % FGF21 dimer ([2]; 8 hrs): 5.7%
- % Hydrolyzed reactive FGF21ΔH-A129C-L1 ([2]; 8 hrs): 22.3%
- % Other ([2]; 8 hrs): 1.7%
- % reactive FGF21ΔH-A129C-L1 ([2]; 8 hrs): 55.8%
- % FGF21 ([2]; 10 hrs): 15.0%
- % FGF21 dimer ([2]; 10 hrs): 5.9%
- % Hydrolyzed reactive FGF21ΔH-A129C-L1 ([2]; 10 hrs): 25.0%
- % Other ([2]; 10 hrs): 1.8%
- % reactive FGF21ΔH-A129C-L1 ([2]; 10 hrs): 52.3%

Source: patent US9163227B2, “Anti-diabetic compounds” (PFIZER INC., priority 2011, dated 2015)
